Assay [1] addresses HAMA血清タイプ1(Roche製、品番:1767275). Description: forward sandwich ELISA with anti-hCEA antibodies and HAMA serum type 1, inhibitor at 1 ug/ml. A general note: In an ELISA, binding on a coated surface is turned into a signal by an enzyme label.
The target of assay [2] is HAMA血清タイプ1(Roche製、品番:1767275). The assay is described as above. The source holds these as a separate data set.

Read-outs that look alike come from different tables or passages of the source.

On to “MAK33−IgG1(Roche製、品番:1200941) (antibody)”, for which the HAMA抑制率 in assay [1] came to 69%; in assay [2] it was 51%.
In the case of “Heterophilic Blocking Reagent1(SCANTIBODIES LABORATORY，INC.製、品番:3KC534−075)”, in assay [1], the HAMA抑制率 worked out at 68%.
Regarding マウスIgG(CHEMICON製、品番:PP54) (antibody), the HAMA抑制率 in assay [1] was determined as 61%; in assay [2] it was 39%.

The values above are taken from patent JP2010254663A.
